Measurements from patent US20220112236A1.

Experiments:
[1] = target: Polyclonal human IgG Gammanorm (human); experiment: affinity chromatography, commercial resin packed in column, polyclonal human IgG (Gammanorm) applied, DBC at 6 min residence time
[2] = target: Polyclonal human IgG Gammanorm (human); experiment: affinity chromatography column, IgG binding capacity after 24 h in 0.5 M NaOH at room temperature relative to before incubation

MabSelect SuRe
Dynamic binding capacity at 6 min residence time [1]: 41.8 mg/mL | Remaining binding capacity after 24h 0.5M NaOH incubation [2]: 75.2%
